Laboratory results published in PMC2674315 (Biochemistry, 2008).
Numbering of substitutions follows the chain as printed. Each block holds one molecule with its values, some of them ahead of it.

T1: EphA2-Sam double mutant (H924N, R950A) (human, UniProt P29317 901-976, H924N | R950A)
T1 sequence (looked up): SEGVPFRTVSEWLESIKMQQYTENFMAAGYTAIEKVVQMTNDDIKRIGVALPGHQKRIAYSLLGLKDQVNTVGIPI

T2: Sam domain of the EphA2 receptor, polyHis-tag cut with thrombin (human, UniProt P29317 901-976)
T2 sequence (looked up): T1 sequence (looked up) with N24H, A50R

B1: Sam domain of the EphA2 receptor (domain or fragment, human, UniProt P29317 901-976, looked up)
chain: T1 sequence (looked up) with N24H, A50R
B2: Sam domain of Ship2 (Src homology 2 domain-containing phosphoinositide-5-phosphatase 2) (domain or fragment, human, UniProt O15357 1194-1258, looked up)
chain: SGLGEAGMSAWLRAIGLERYEEGLVHNGWDDLEFLSDITEEDLEEAGVQDPAHKRLLLDTLQLSK

Tests used:
[1] = biological target: Sam domain of Ship2 (Src homology 2 domain-containing phosphoinositide-5-phosphatase 2) (human) (UniProt O15357); test: AUC
[2] = biological target: Arap3-Sam Sam (Homo sapiens) (UniProt Q8WWN8); test: ITC; conditions: cited from earlier work
[3] = biological target: B2; test: ITC
[4] = biological target: T1, EphA2-Sam double mutant (H924N, R950A); test: ITC
[5] = biological target: B1; test: ITC
[6] = biological target: T2, Sam domain of the EphA2 receptor, …; test: ITC

Sequence of Arap3-Sam Sam (Homo sapiens) (Q8WWN8 1-71): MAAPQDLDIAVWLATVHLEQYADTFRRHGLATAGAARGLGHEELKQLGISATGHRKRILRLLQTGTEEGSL

- Kd [1]: 2000 µM
Molecule: Sam domain of Ship2 (Src homology 2 domain-containing phosphoinositide-5-phosphatase 2) (from UniProt O15357 1194-1258) (domain or fragment)

Molecule: Ship2-Sam Sam (from UniProt O15357)
- Kd [2]: 0.1 µM

Molecule: B1
- stoichiometry N [3]: 1

Molecule: B2
- Kd [4]: 1.8 ± 0.6 µM
- Kd [5]: 0.75 ± 0.12 µM

- Kd [6]: 19 ± 3 µM
Molecule: Ac-EGLVHNGWDDLEFLSDITEEDL-NH2 [Shiptide (minimal peptide region of Ship2-Sam)]
